Results on two molecules are retold here after article PMC9053816, “A polypeptide model for toxic aberrant proteins induced by aminoglycoside antibiotics” (PLoS ONE, 2022).

For this test, the target named is T1, 6His-DnaK (E. coli DnaK protein) (E. coli, UniProt P0A6Y8 1-638).
T1 construct: molecular chaperone DnaK of E. coli, from the ASKA expression clone; The functional rows concern endogenous DnaK in E. coli BL21 cells; source: purified from the ASKA expression clone by chromatography on Ni-NTA agarose
T1 sequence (P0A6Y8 whole entry): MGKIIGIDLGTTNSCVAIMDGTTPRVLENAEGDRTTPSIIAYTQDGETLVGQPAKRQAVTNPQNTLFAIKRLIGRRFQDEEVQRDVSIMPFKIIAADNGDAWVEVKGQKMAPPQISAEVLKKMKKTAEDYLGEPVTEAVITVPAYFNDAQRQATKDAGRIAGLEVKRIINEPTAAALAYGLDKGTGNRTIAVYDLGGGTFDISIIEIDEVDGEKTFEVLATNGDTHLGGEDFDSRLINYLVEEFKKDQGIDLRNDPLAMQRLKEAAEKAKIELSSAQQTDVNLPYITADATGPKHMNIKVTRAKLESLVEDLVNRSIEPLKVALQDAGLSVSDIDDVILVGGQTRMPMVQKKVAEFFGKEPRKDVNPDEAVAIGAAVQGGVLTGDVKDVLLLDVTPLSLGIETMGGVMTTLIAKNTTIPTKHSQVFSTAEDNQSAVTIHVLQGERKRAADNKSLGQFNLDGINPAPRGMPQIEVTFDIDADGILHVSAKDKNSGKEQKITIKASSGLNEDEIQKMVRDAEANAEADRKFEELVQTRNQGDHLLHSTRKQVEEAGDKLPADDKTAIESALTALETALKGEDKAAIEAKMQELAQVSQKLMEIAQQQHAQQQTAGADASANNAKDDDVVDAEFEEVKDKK
Put plainly: MST; 20 nM fluorescein-labelled peptide incubated with varying concentrations of DnaK; 50 mM Tris pH 7.4, 150 mM NaCl, 10 mM MgCl2, 0.05% Tween-20, 0.05% BSA; 1 h at 20°C; Monolith NT.115; three independent trials. To be noted: both partners purified.

*: point of attachment. FITC = O=C1OC2(c3ccc(O)cc3Oc3cc(O)ccc32)c2ccc(NC(=S)*)cc21

B1: NR peptide, FITC-TEKANRLLLTGKTEQ (canonical DnaK peptide substrate NRLLLTG with flanking extensions) (peptide)
peptide: {FITC}-TEKANRLLLTGKTEQ-NH2
notes: canonical DnaK peptide substrate NRLLLTG flanked by the N-terminal extension TEKA and the C-terminal extension KTEQ; source: synthetic peptide (Peptide 2.0, Inc.)
For the molecule B1, the binding result is “binds”.

B2: KL peptide, FITC-TEKAKLVIKLLALGKTEQ (KL decapeptide of ARF48 with flanking extensions) (peptide)
peptide: {FITC}-TEKAKLVIKLLALGKTEQ-NH2
notes: ARF48 is encoded by a +1 alternate reading frame of an Arabidopsis thaliana cDNA and is not a natural protein; The core decapeptide comes from an aberrant alternate-frame polypeptide, not from a natural protein; also called synthetic KL decapeptide; source: synthetic peptide (Peptide 2.0, Inc.)
For the molecule B2, the binding result was “binds”.
